Experimental data taken from patent US20190330277A1.
Where “and” joins values, the source holds several entries; their conditions need not be identical. Equal values may be shown once.

Assays:
[1] = molecular target: bRSV RB94 DSCav1 (bovine respiratory syncytial virus, strain RB94) (UniProt P23728); experiment: biolayer interferometry Octet binding analysis
391-2-DS-Cav1-SC-IP-1 = experiment: ELISA, variant from culture supernatant on Ni-NTA plate [continued]
391-2-DS-Cav1-BZGJ9_gyc4 = experiment: as above
391-2_DS-Cav1-tzsc2 = experiment: as above
391-2-DS-Cav1-BZGJ9_gyc2 = experiment: as above
[2] = molecular target: sc9-10_DS-CAV1_bRSV(RB94)_Fd_(hRSV-leader)_ig1; experiment: as above
[3] = molecular target: RB94_sc9-10 DS-CAV1 L373R; experiment: as above
391-2-DS-Cav1-BZGJ9_gyc6 = experiment: as above
391-2-DS-Cav1- F-SC_11R = experiment: as above
[4] = molecular target: sc9-10_DS-CAV1_bRSV(RB94)_Fd_fp1_ig1; experiment: as above
391-2-DS-Cav1-BZGJ9 = experiment: as above
391-2_DS-Cav1-tzsc6 = experiment: as above
391-2-DS-Cav1-BZGJ9_gyc3 = experiment: as above
[5] = molecular target: RB94 DS-CAV1 N70K S104F K117T; experiment: as above
391-2_DS-Cav1-tzsc4 = experiment: as above
391-2-DS-Cav1-IP-2 = experiment: as above
391-2-DS-Cav1-IP-7 = experiment: as above
[6] = molecular target: 391-2-DS-Cav1-BZGJ9_gyc10; experiment: as above
391-2_DS-Cav1-tzsc9 = experiment: as above
[7] = molecular target: 391-2-DS-Cav1-BZGJ9deleteFS; experiment: as above
[8] = molecular target: bRSV RB94 DSCav1 (bovine respiratory syncytial virus, strain RB94) (UniProt P23728)
[9] = molecular target: 391-2-site 0 hRSV DSCav1-BZGJ9 Long; experiment: ELISA, variant from culture supernatant on Ni-NTA plate
391-2-DS-Cav1-BZGJ9_gyc1 = experiment: as above
391-2-DS-Cav1-BZGJ9_gyc5 = experiment: as above
[10] = molecular target: RB94 site 0 hRSV DS-Cav1-BZGJ9 Long FdPL; experiment: as above
[11] = molecular target: RB94 site 0 hRSV bovSurf DS-Cav1-BZGJ9 Long FdPL; experiment: as above
391-2-DS-Cav1-IP-4 = experiment: as above
391-2-DS-Cav1-BZGJ9 Long = experiment: as above
391-2wt-F_SC_11R = experiment: as above
[12] = molecular target: RB94 dscav1T369C-T455C Long S190V; experiment: as above
[13] = molecular target: 391-2-DS-Cav1-sc9 99C-361C; experiment: as above
[14] = molecular target: RB94 sc9 DS-CAV1 N183GC-N428C L373R; experiment: as above
[15] = molecular target: 391-2-DS-Cav1_ sc9_I395C-A490C; experiment: as above
[16] = molecular target: 391-2-DS-Cav1-sc9deleteFS 100C-361C; experiment: as above
[17] = molecular target: 391-2-DS-Cav1-sc9 99C-362C; experiment: as above
[18] = molecular target: 391-2-DS-Cav1-sc9deleteFS 99C-361C; experiment: as above
[19] = molecular target: sc9-10_DS-CAV1_bRSV(RB94)_Fd_hp2_ig1; experiment: as above
[20] = molecular target: 391-2-DS-Cav1-sc9deleteFS 98C-362C; experiment: as above
[21] = molecular target: 391-2-DS-Cav1_ S398C-S485C; experiment: as above

## motavizumab (antibody)
[1]
  response level (biolayer interferometry): 0.5 nm
391-2-DS-Cav1-SC-IP-1
  ELISA binding value: 1.1
391-2-DS-Cav1-BZGJ9_gyc4
  ELISA binding value: 0.486
391-2_DS-Cav1-tzsc2
  ELISA binding value: 0.366
391-2-DS-Cav1-BZGJ9_gyc2
  ELISA binding value: 1.58
[2]
  ELISA binding value: 0.538
[3]
  ELISA binding value: 0.689
391-2-DS-Cav1-BZGJ9_gyc6
  ELISA binding value: 1.05
391-2-DS-Cav1- F-SC_11R
  ELISA binding value: 0.538
[4]
  ELISA binding value: 0.545
391-2-DS-Cav1-BZGJ9
  ELISA binding value: 0.5
391-2_DS-Cav1-tzsc6
  ELISA binding value: 0.527
391-2-DS-Cav1-BZGJ9_gyc3
  ELISA binding value: 0.599
[5]
  ELISA binding value: 0.271
391-2_DS-Cav1-tzsc4
  ELISA binding value: 0.639 and 0.505
391-2-DS-Cav1-IP-2
  ELISA binding value: 0.556
391-2-DS-Cav1-IP-7
  ELISA binding value: 0.546
[6]
  ELISA binding value: 0.461
391-2_DS-Cav1-tzsc9
  ELISA binding value: 1.59
[7]
  ELISA binding value: 0.152
[8]
  ELISA binding value: 0.371
[9]
  ELISA binding value: 2.08
391-2-DS-Cav1-BZGJ9_gyc1
  ELISA binding value: 2.12
391-2-DS-Cav1-BZGJ9_gyc5
  ELISA binding value: 2.04
[10]
  ELISA binding value: 2.26
[11]
  ELISA binding value: 2.21
391-2-DS-Cav1-IP-4
  ELISA binding value: 0.933
391-2-DS-Cav1-BZGJ9 Long
  ELISA binding value: 1.55
391-2wt-F_SC_11R
  ELISA binding value: 1.79
[12]
  ELISA binding value: 0.511
[13]
  ELISA binding value: 1.68
[14]
  ELISA binding value: 1.04
[15]
  ELISA binding value: 0.891
[16]
  ELISA binding value: 0.477
[17]
  ELISA binding value: 0.393
[18]
  ELISA binding value: 0.606
[19]
  ELISA binding value: 2.52
[20]
  ELISA binding value: 0.589
[21]
  ELISA binding value: 0.545
